Laboratory results as given in paper PMC6941876, “White Spot Syndrome Virus Establishes a Novel IE1/JNK/c-Jun Positive Feedback Loop to Drive Replication”.

Experiments:
rLvc-Jun [1] = target: T1, rLvc-Jun (Litopenaeus vannamei, UniProt A0A0A7W5M9 1-293); assay: EMSA; EMSA with biotin-labeled probes; buffer, salt, pH and temperature not in the material; conditions: protein: recombinant, tags: GST tag removed with enterokinase, chain copies: 0, blunt
T1 chain: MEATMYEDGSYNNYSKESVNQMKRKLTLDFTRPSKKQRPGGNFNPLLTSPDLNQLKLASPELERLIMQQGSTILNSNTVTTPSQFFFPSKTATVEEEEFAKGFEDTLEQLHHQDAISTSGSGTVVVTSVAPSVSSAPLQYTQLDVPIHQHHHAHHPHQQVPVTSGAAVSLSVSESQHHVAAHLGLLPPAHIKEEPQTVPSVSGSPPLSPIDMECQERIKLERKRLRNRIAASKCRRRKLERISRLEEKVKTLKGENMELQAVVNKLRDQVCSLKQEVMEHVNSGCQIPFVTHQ

rLvc-Jun [2] = target: T1, rLvc-Jun; assay: competition; 10-, 50-, 100-fold excess over biotin IE1-AP-1-1; EMSA with biotin-labeled probes; buffer, salt, pH and temperature not in the material; conditions: protein: recombinant; tags: GST tag removed with enterokinase; chain copies: 0; label: none; blunt

B1: 403-AP-1 probe (dsDNA)
DNA 1: ATTTCCAAGAATTTTGCTGACGTCAATGGACC
DNA 2: GGTCCATTGACGTCAGCAAAATTCTTGGAAAT
rLvc-Jun [1]; label: biotin
  binding result: binds

B2: IE1-AP-1-1 probe (dsDNA)
DNA 1: GAAAATGGCTGTTTGAATCATGTTAAGGAATT
DNA 2: AATTCCTTAACATGATTCAAACAGCCATTTTC
rLvc-Jun [1]; label: biotin (probe)
  binding result: binds

B3: Mut-unBio-IE1-AP-1-1 (dsDNA)
DNA 1: GAAAATCGCTGTTCCCATCCTGTTAAGGAATT
DNA 2: AATTCCTTAACAGGATGGGAACAGCGATTTTC
rLvc-Jun [2]
  binding result: no binding

B4: 249-AP-1 probe (dsDNA)
DNA 1: TAGGAATTTCGCTGACGTCAATAAACTGGTTT
DNA 2: AAACCAGTTTATTGACGTCAGCGAAATTCCTA
rLvc-Jun [1]; label: biotin
  binding result: binds

B5: IE1-AP-1-2 probe (dsDNA)
DNA 1: GGAATTTCCTTGTTACTCATTTATTCCTAGA
DNA 2: TCTAGGAATAAATGAGTAACAAGGAAATTCC
rLvc-Jun [1]; label: biotin (probe)
  binding result: binds

B6: 056-AP-1 probe (dsDNA)
DNA 1: GTACCAGATGTGAGTCAAACCGTTTCTGG
DNA 2: CCAGAAACGGTTTGACTCACATCTGGTAC
rLvc-Jun [1]; label: biotin
  binding result: binds
